US9120851B2, “Human antibodies to human angiopoietin-like protein 4” (Regeneron Pharmaceuticals, Inc., priority 2009, dated 2015)

T1: hANGPTL4(26-406)-His (Homo sapiens, UniProt Q9BY76)
T1 construct: purchased R&D Systems
T1 sequence (Q9BY76 26-406): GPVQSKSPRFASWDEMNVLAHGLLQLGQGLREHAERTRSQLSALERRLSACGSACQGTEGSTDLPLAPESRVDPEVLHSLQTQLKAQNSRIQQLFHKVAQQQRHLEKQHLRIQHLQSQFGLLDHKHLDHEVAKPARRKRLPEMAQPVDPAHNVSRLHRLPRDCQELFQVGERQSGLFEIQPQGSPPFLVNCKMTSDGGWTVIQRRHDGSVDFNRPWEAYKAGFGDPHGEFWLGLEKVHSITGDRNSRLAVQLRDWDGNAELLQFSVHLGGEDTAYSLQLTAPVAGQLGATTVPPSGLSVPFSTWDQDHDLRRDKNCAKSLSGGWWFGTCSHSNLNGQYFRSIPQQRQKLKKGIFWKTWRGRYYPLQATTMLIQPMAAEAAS


Experiments:
MfANGPTL4(1-130)-His = assay: BIACORE, full mAb or Fab over amino-coupled MfANGPTL4(1-130)-His; format: binding, cynomolgus monkey; details: for Response bound at 50 nM mAb or Fab: amino-coupled 1,028 RU
Procedure: (§1) Briefly, various concentrations (3.125 nM-100 nM) of anti-hANGPTL4 antibodies (i.e., H1H268 Fab, entire H1H268 mAb, H1H284 Fab, and entire H1H284 mAb) were injected over a low density anti-mFc captured hANGPTL4(26-148)-mFc (˜68±4 RU) surface, or the surface of amino-coupled hANGPTL4(26-406)-His (R&D Systems) (450 RU) or amino-coupled cynomolgus monkey N-terminal region (amino acid residues 1-130 of SEQ ID NO:490) expressed with an C-terminal hexa-histidine tag (MfANGPTL4(1-130)-His) (1,028 RU). Kinetic analysis was performed to measure ka and kd, and KD values and half-life of antigen/antibody complex dissociation were calculated. The results are shown in Table 4 (H1H268P) and Table 5 (H1H284P).

hANGPTL4(26-406)-His = target: T1, hANGPTL4(26-406)-His; assay: BIACORE, full mAb or Fab over amino-coupled hANGPTL4(26-406)-His; format: binding; details: for RU bound at 50 nM mAb or Fab: amino-coupled 450 RU
Procedure: as §1

[1] = tested on: C57BL/6 mice given hANGPTL4-mFc; format: in vivo; details: antibody 5 mg/kg s.c.; 24 h later hANGPTL4-mFc 25 μg/mouse i.v.; bled 30 min after; mean±SEM
Procedure: In another set of experiments, selected anti-hANGPTL4 antibodies were tested for their ability to inhibit hANGPTL4-induced increase of triglyceride levels. Measurements of total cholesterol, LDL, NEFA-C and HDL were also made. Briefly, C57BL/6 mice were put into groups of five mice each for each antibody tested. Antibodies were administered at 5 mg/kg dose by subcutaneous injection. Control group I, i.e., mice that received neither anti-hANGPTL4 antibodies nor hANGPTL4, were administered with PBS. Twenty-four hours post-injection of antibody, hANGPTL4-mFc (SEQ ID NO:480) was administered (i.v.) at a dose of 25 μg/mouse to each antibody group. Mice were bled at 30 min after hANGPTL4-mFc injection and lipid levels were determined by ADVIA® 1650 Chemistry System (Siemens). Averages were calculated for each of the measurements of triglycerides, total cholesterol (Total-C), LDL, NEFA-C and HDL for each antibody or control group. Levels of circulating anti-hANGPTL4 antibodies (Serum Ab) were also determined using a standard ELISA assay. Briefly, plates were coated with a goat anti-human Fc antibody (Sigma-Aldrich) to capture Serum Ab. Serum was then added to the plates and captured anti-hANGPTL4 antibodies were detected by chemiluminescence using a horseradish peroxidase (HRP) conjugated goat anti-human IgG antibody (Sigma-Aldrich). Control I: Mice that received PBS, but neither anti-hANGPTL4 antibodies nor hANGPTL4-mFc. Control II: Mice that received a human antibody specific for CD20 (i.e., the mAb having the sequence of 2F2 clone disclosed in US 2008/0260641) and hANGPTL4-mFc.

hANGPTL4(26-148)-mFc [2] = target: T2, hANGPTL4(26-148)-mFc (Homo sapiens, UniProt Q9BY76); assay: BIACORE, full mAb or Fab over anti-mFc captured hANGPTL4(26-148)-mFc; format: binding
T2 construct: amino acid residues 26-148 of human ANGPTL4 fused in-line to mouse IgG2a (hANGPTL4-mFc)

hANGPTL4(26-148)-mFc [3] = target: T2, hANGPTL4(26-148)-mFc; assay: as above; format: binding; remark: listed apart in the source
Procedure: as §1

[4] = pH 5.75, 25° C., antigen captured 27 ± 0.6 RU
[5] = pH 7.2, 25° C., antigen captured 35 ± 1.9 RU

MfANGPTL4(1-130)-His, sequence (as listed by the source): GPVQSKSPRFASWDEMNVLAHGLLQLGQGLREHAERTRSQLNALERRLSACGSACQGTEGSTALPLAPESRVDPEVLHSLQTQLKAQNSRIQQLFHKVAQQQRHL
T2 sequence (Q9BY76 with tags, fused parts or gaps): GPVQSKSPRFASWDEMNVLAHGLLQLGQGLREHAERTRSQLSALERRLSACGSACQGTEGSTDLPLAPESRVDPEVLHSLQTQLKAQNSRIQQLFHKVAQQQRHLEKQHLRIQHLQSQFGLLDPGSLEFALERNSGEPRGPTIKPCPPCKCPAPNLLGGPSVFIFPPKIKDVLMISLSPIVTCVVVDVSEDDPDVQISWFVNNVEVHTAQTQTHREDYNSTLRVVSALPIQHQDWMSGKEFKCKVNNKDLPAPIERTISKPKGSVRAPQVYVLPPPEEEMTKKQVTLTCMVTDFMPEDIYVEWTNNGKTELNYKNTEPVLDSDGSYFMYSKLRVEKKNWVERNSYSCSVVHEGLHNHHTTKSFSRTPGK

kd (MfANGPTL4(1-130)-His; pH 5.75, 25° C.)	kd (MfANGPTL4(1-130)-His; pH 7.2, 25° C.)	ka (hANGPTL4(26-406)-His; pH 5.75, 25° C.)	kd (hANGPTL4(26-406)-His; pH 5.75, 25° C.)	RU bound at 50 nM mAb or Fab (hANGPTL4(26-406)-His; pH 5.75, 25° C.)	ka (hANGPTL4(26-406)-His; pH 7.2, 25° C.)	kd (hANGPTL4(26-406)-His; pH 7.2, 25° C.)	RU bound at 50 nM mAb or Fab (hANGPTL4(26-406)-His; pH 7.2, 25° C.)	Response bound at 50 nM mAb or Fab (RU) (hANGPTL4(26-148)-mFc [2]; [4])	Response bound at 50 nM mAb or Fab (RU) (hANGPTL4(26-148)-mFc [2]; [5])	ka (hANGPTL4(26-148)-mFc [3]; pH 5.75, 25° C.)	kd (hANGPTL4(26-148)-mFc [3]; pH 5.75, 25° C.)	Molecule	ka (MfANGPTL4(1-130)-His; pH 5.75, 25° C.)	Response bound at 50 nM mAb or Fab (MfANGPTL4(1-130)-His; pH 5.75, 25° C.)	ka (MfANGPTL4(1-130)-His; pH 7.2, 25° C.)	Response bound at 50 nM mAb or Fab (MfANGPTL4(1-130)-His; pH 7.2, 25° C.)	HDL [1]	LDL [1]	NEFA-C [1]	Triglycerides [1]	other results
8.42e-05 s⁻¹	5.83e-05 s⁻¹	1.93e+06 M⁻¹ s⁻¹	0.000272 s⁻¹	101	850000 M⁻¹ s⁻¹	8.85e-05 s⁻¹	77	171	99	1.09e+06 M⁻¹ s⁻¹	8.91e-05 s⁻¹	H1H284P: anti-hANGPTL4 antibody, hIgG1 isotype, HCVR/LCVR SEQ ID NOs 90/92 (antibody, V domains shown) VH: QVQLVESGGGVVQPGRSLRLSCAASGFTFSSYGMHWVRQAPGKGLEWMAVISFDGGNKNNADSVKGRFTISRDNSKNTLYLQMNSLRAEDTAVYYCAKEGDRSGHPYFYYYGLDVWGQGTTVTVS VL: DIQLTQSPSFLSASVGDRVTITCWASQGISSYLAWYQQKPGKAPKLLIYAASTLQSGVPSRFSGSGSETEFTLTISSLQPEDFATYYCQQLHSYPLTFGGGTKVEIK	1.55e+06 M⁻¹ s⁻¹	804	467000 M⁻¹ s⁻¹	414	39.60 ± 3.46 mg/dL	4.98 ± 0.87 mg/dL	0.99 ± 0.11 mg/dL	99.20 ± 9.52 mg/dL	Total-C [1]: 80.80 ± 6.40 mg/dL; ka (hANGPTL4(26-148)-mFc [3]; pH 7.2, 25° C.): 274000 M⁻¹ s⁻¹; kd (hANGPTL4(26-148)-mFc [3]; pH 7.2, 25° C.): 5.36e-05 s⁻¹
8.24e-05 s⁻¹	4.76e-05 s⁻¹	923000 M⁻¹ s⁻¹	0.000446 s⁻¹	45	489000 M⁻¹ s⁻¹	0.0002 s⁻¹	38	77	40	628000 M⁻¹ s⁻¹	0.000138 s⁻¹	H1H268P: anti-hANGPTL4 antibody, hIgG1 isotype, HCVR/LCVR SEQ ID NOs 42/44 (antibody, V domains shown) VH: QVQLQESGAGLLKPSETLSLTCTVYGGSFSIHHWTWIRHPPGKGLEWIGEINHRGSTNYNPSLKSRVTISIDTSKNQFSLKLSAVTAADTAVYYCARGLRFLDWLSSYFDYWGQGTLVTVSS VL: DIQMTQSPSSLSASVGDRVTITCRASQGISDYLAWYQQKPGKVPNLLIYAASALQSGVPSRFSGSGSGTDFTLTISSLQPEDVATYYCQNYNTAPLTFGGGTKVEIK	107000 M⁻¹ s⁻¹	583	392000 M⁻¹ s⁻¹	279	35.94 ± 1.64 mg/dL	4.94 ± 0.51 mg/dL	0.82 ± 0.04 mg/dL	92.60 ± 11.44 mg/dL	ka (hANGPTL4(26-148)-mFc [3]; pH 7.2, 25° C.): 153000 M⁻¹ s⁻¹; kd (hANGPTL4(26-148)-mFc [3]; pH 7.2, 25° C.): 9.59e-05 s⁻¹
